Columns and labels:
[1] = biological target: unknown target molecule expressed on the plasma membranes of human HCC cells; test: in vivo competition, 100 ug SP94 co-injected with 2x10^9 pfu PC94 (competitor of PC94), Mahlavu xenograft; phage recovered from tumor
[2] = biological target: unknown target molecule expressed on the plasma membranes of human HCC cells
[3] = biological target: unknown target molecule expressed on the plasma membranes of human HCC cells; test: flow cytometry on HCC cell line HA22T; design: concentration or dose not given beside the values
[4] = biological target: unknown target molecule expressed on the plasma membranes of human HCC cells; test: flow cytometry on HCC cell lines Changliver and J5 (range over the two lines); design: concentration or dose not given beside the values
[5] = biological target: unknown target molecule expressed on the plasma membranes of human HCC cells; test: flow cytometry on HCC cell lines Mahlavu, 59T, Hep3B, HepG2, NTUBL and SKHepl (range over the six lines); design: concentration or dose not given beside the values

| Binder | percent inhibition of PC94 binding to tumor tissue [1] [%] | fold binding activity over control phage [2] [fold] | percent reactive cells (FACS) [3] [%] | percent reactive cells (FACS) [4] [%] | percent reactive cells (FACS) [5] [%] |
| --- | --- | --- | --- | --- | --- |
| SFSIIHTPILPL [SP94 synthetic peptide (…)] | 88 |  |  |  |  |
| SFSIIHTPILPL (peptide, not shown: large carriers) [phage clone 94 (PC94)] |  | 8 | 19.1 | 25.7 to 31.9 | 47 to 81.2 |

— US20090136418A1
